According to PMC12595441, “Glycosaminoglycans activate peptidylarginine deiminase 4 by enhancing calcium affinity” (Proceedings of the National Academy of Sciences of the …, 2025):
Where a chain is given by its changes, count along the chain named. Numbers in names are those of the source.

B1: PAD4^59/60/61/81/91 (K59S K60S K61S K81S K91S) (enzyme, human, UniProt Q9UM07 1-663, looked up)
chain: MAQGTLIRVTPEQPTHAVCVLGTLTQLDICSSAPEDCTSFSINASPGVVVDIAHGPPASSSSTGSSTWPLDPGVEVTLTMSVASGSTGDQSVQISYYGPKTPPVKALLYLTGVEISLCADITRTGKVKPTRAVKDQRTWTWGPCGQGAILLVNCDRDNLESSAMDCEDDEVLDSEDLQDMSLMTLSTKTPKDFFTNHTLVLHVARSEMDKVRVFQATRGKLSSKCSVVLGPKWPSHYLMVPGGKHNMDFYVEALAFPDTDFPGLITLTISLLDTSNLELPEAVVFQDSVVFRVAPWIMTPNTQPPQEVYACSIFENEDFLKSVTTLAMKAKCKLTICPEEENMDDQWMQDEMEIGYIQAPHKTLPVVFDSPRNRGLKEFPIKRVMGPDFGYVTRGPQTGGISGLDSFGNLEVSPPVTVRGKEYPLGRILFGDSCYPSNDSRQMHQALQDFLSAQQVQAPVKLYSDWLSVGHVDEFLSFVPAPDRKGFRLLLASPRSCYKLFQEQQNEGHGEALLFEGIKKKKQQKIKNILSNKTLREHNSFVERCIDWNRELLKRELGLAESDIIDIPQLFKLKEFSKAEAFFPNMVNMLVLGKHLGIPKPFGPVINGRCCLEEKVCSLLEPLGLQCTFINDFFTYHIRHGEVHCGTNVRRKPFSFKWWNMVP
notes: Full length human PAD4 (GenBank NM_012387) with K59S K60S K61S K81S K91S; source: E. coli BL21(DE3), purified (HisTrap FF, HiTrap Heparin HP, Superdex 200 SEC)
B2: PAD4^126/128/131/134/137 (K126S K128S R131S K134S R137S) (enzyme, human, UniProt Q9UM07 1-663, looked up)
chain: B1 chain with S59K, S60K, S61K, S81K, S91K, K126S, K128S, R131S, K134S, R137S
notes: Full length human PAD4 (GenBank NM_012387) with K126S K128S R131S K134S R137S; source: E. coli BL21(DE3), purified (HisTrap FF, HiTrap Heparin HP, Superdex 200 SEC)
B3: PAD4^123/126/128 (R123S K126S K128S) (enzyme, human, UniProt Q9UM07 1-663, looked up)
chain: B1 chain with S59K, S60K, S61K, S81K, S91K, R123S, K126S, K128S
notes: Full length human PAD4 (GenBank NM_012387) with R123S K126S K128S; source: E. coli BL21(DE3), purified (HisTrap FF, HiTrap Heparin HP, Superdex 200 SEC)

Key:
heparin [1] = assay: heparin activation assay with BAEE substrate, Hill equation fit (apparent KD); settings: 0.1 mM Ca2+
heparin [2] = assay: SPR; settings: immobilized heparin
heparin [3] = assay: heparin column chromatography (Poros heparin), salt gradient; settings: gradient of 2 M NaCl; parent: est. 31 min; read off a plot
[4] = target: the molecule itself; assay: SEC; analytical SEC without heparin, Superdex 200 Increase 3.2/300, protein at 0.15 µM, 50 mM Tris pH 7.5, 300 mM NaCl, 0.1 mM CaCl2, 0.05% Tween20, 0.25 mM DTT; tryptophan fluorescence; compared with HMW calibration standards
[5] = target: the molecule itself; assay: SEC; analytical SEC in the presence of 5 µM heparin, Superdex 200 Increase 3.2/300, protein at 0.15 µM, 50 mM Tris pH 7.5, 300 mM NaCl, 0.1 mM CaCl2, 0.05% Tween20, 0.25 mM DTT; tryptophan fluorescence

Molecule	Kd (heparin [1]) [nM]	Kd (heparin [2]) [nM]	koff (heparin [2])	kon (× 10^4 M^-1s^-1) (heparin [2])	response (heparin [2]) [RU]	other: peak elution time from heparin column (heparin [3]) [min]	stoichiometry N [4]	stoichiometry N [5]	binding result [5]
peptidylarginine deiminase 4 (PAD4), recombinant human, wild type (from UniProt Q9UM07) K59S; K60S; K61S; K81S; K91S	6.1	11.8	6.7 × 10^-4	5.6	–	–	–	–	–
peptidylarginine deiminase 4 (PAD4), recombinant human, wild type (from UniProt Q9UM07) K126S; K128S; R131S; K134S; R137S	7.5	13.5	3.9 × 10^-4	3.1	–	–	–	–	–
peptidylarginine deiminase 4 (PAD4), recombinant human, wild type (from UniProt Q9UM07) R8E	13.5	15.7	4.2 × 10^-4	2.6	659	–	–	–	–
peptidylarginine deiminase 4 (PAD4), recombinant human, wild type (from UniProt Q9UM07) R8E; Y435A	–	15.5	4.5 × 10^-4	3	802	–	–	–	–
peptidylarginine deiminase 4 (PAD4), recombinant human, wild type (from UniProt Q9UM07) R123S; K126S; K128S	6.2	14.4	4.6 × 10^-4	3	328	29	–	–	–
peptidylarginine deiminase 4 (PAD4), recombinant human, wild type (from UniProt Q9UM07) Y435A	13.3	16.6	4.5 × 10^-4	2.8	786	–	–	–	–
B1	–	–	–	–	–	–	4	≤ 4	–
B2	–	–	–	–	–	–	4	≤ 4	–
B3	–	–	–	–	–	–	–	–	binds
